Molecular target: growth hormone secretagogue receptor-type 1a tagged with enhanced green fluorescent protein (GHSR-1a-EGFP), stably expressed in HEK293A cells (UniProt Q92847)
Chain of UniProt Q92847 (Q92847 whole entry): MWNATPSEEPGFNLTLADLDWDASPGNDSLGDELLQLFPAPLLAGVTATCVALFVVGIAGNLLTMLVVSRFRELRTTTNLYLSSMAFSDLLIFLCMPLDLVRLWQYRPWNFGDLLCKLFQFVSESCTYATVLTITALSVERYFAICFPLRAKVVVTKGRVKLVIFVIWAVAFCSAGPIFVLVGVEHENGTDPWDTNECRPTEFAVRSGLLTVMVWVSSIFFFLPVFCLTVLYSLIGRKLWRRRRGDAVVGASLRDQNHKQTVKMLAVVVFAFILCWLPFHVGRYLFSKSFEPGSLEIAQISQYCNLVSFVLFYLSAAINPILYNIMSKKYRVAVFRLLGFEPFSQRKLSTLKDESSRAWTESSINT

Substance	intracellular Ca2+ mobilisation in HEK293A cells stably expressing GHSR-1a-EGFP, Emax as percentage of the control (3.3% FBS) [%]	intracellular Ca2+ mobilisation in HEK293A cells stably expressing GHSR-1a-EGFP, EC50 [µg/mL]
ghrelin (rat) (peptide)	132	
casein-derived hydrolysate (CasHyd)	149	270
